Assay results published in US20110183861A1 (ABLYNN N V, published 2011).

T1: human RANKL (human, UniProt O14788 140-317, limits assumed)
T1 sequence (looked up): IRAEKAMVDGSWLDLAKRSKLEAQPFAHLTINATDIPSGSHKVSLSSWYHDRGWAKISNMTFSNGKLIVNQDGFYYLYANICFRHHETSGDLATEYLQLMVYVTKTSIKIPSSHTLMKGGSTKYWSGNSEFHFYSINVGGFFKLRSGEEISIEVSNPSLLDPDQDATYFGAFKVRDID


Assays:
human RANKL [1] = molecular target: T1, human RANKL; assay: AlphaScreen competition against the human RANKL / human RANK-Fc interaction
Description: (§1) Finally, streptavidin coated donor beads (20 ug/ml) were added. After 1 hour of incubation plates were read on the Envison Alphascreen reader (PerkinElmer). All experiments were performed in duplicate.

human RANKL [2] = molecular target: T1, human RANKL; assay: AlphaScreen competition: Nanobody titrated against the interaction of human RANKL (1 nM) with biotinylated human RANK-Fc (3 nM); acceptor beads with anti-RANKL MAb BN-12, streptavidin donor beads
Description: as §1

A1 domain of vWF [3] = molecular target: T2, A1 domain of vWF (UniProt P04275 1261-1468, limits assumed); assay: SPR (BIAcore), vWF A1 domain on sensor-chip
T2 construct: domain: A1 domain; also called vWF A1 domain
Description: (§2) The kinetic constants, kₒₙ and koff, were deduced from the obtained sensorgrams and used to calculate the equilibrium dissociation constant, KD. […] For these experiments, the samples were diluted to a 2 nM concentration. The initial binding rate was determined from the association phase of the sensorgram by linear fitting of the data points obtained between 5 and 25 seconds after the injection start and the reported value is the average of 5 independent measurements.

A1 domain of vWF [4] = molecular target: T2, A1 domain of vWF; assay: BIAcore initial binding rate, vWF A1 domain on sensor-chip, stored sample
Description: as §2

A1 domain of vWF [5] = molecular target: T2, A1 domain of vWF; assay: SPR (BIAcore), immobilized vWF A1 domain; M83A mutant
Description: as §2

A1 domain of vWF [6] = molecular target: T2, A1 domain of vWF; assay: SPR (Biacore), A1 domain of VWF
A1 domain of vWF [7] = molecular target: T2, A1 domain of vWF; assay: SPR (BIAcore), vWF A1 domain on sensor-chip; remark: listed apart in the source
Description: as §2

A1 domain of vWF [8] = molecular target: T2, A1 domain of vWF; assay: SPR (BIAcore), immobilized vWF A1 domain; M78A mutant
Description: as §2

A1 domain of vWF [9] = molecular target: T2, A1 domain of vWF; assay: SPR (BIAcore), immobilized vWF A1 domain; M34A mutant
Description: as §2

A1 domain of vWF [10] = molecular target: T2, A1 domain of vWF; assay: PLA potency assay (Biacore) on RPC fraction, first experiment
Description: (§3) To determine the potency (i.e. looking at affinity measurements) of the −18Da product related variant, post-peak 1 was collected during RP-HPLC separation and directly measured in the PLA potency assay. Similar to what was done for pre-peak 1, the elution fraction representing post-peak 1 was first dried using a speedvac (miVac Duo Concentrator, Genevac) and then re-solubilized in PBS. […] Three independent but slightly different experiments were performed. In a first experiment the concentration after reconstitution was determined spectrophotometrically and no Tween was added to the PBS. In a second experiment, 0.02% Tween was present in the PBS at the time of reconstitution of the dried material (to prevent loss of protein from the relatively dilute samples) and the concentration was deduced from the peak area in a re-analysis by RP-HPLC. The RPC re-analysis also confirmed the identity of the isolated material. In a third experiment, we additionally diluted the purified main peak material to about the same concentration as the post-peak variant so to eliminate as much as possible any dissimilarities between the main and the post-peak samples. […]

A1 domain of vWF [11] = molecular target: T2, A1 domain of vWF; assay: PLA potency assay (Biacore) on RPC fraction, second experiment
Description: as §3

A1 domain of vWF [12] = molecular target: T2, A1 domain of vWF; assay: Biacore potency assay

| Binder | Kd (A1 domain of vWF [3]) [nM] | % activity after 4 wks at 37° C. (initial binding rate against time zero) (A1 domain of vWF [4]) [%] | % activity after 8 wks at 37° C. (initial binding rate against time zero) (A1 domain of vWF [4]) [%] | other results |
| --- | --- | --- | --- | --- |
| RANKL-1_D62E (VHH, Expressed from pAX054 in the periplasm of E. coli; not shown: C-terminal c-myc tag and (His)6 tag coded by vector pAX054) VHH: EVQLVESGGGLVQPGGSLRLSCAASGFTFSSYPMGWFRQAPGKGREFVSSITGSGGSTYYAESVKGRFTISRDNAKNTLYLQMNSLRPEDTAVYYCAAYIRPDTYLSRDYRKYDYWGQGTLVTVSS |  |  |  | IC50 (read off the curve) (human RANKL [1]): ~0.1 nM |
| RANKL-1 (VHH, Expressed from pAX054 in the periplasm of E. coli; not shown: C-terminal c-myc tag and (His)6 tag coded by vector pAX054) VHH: EVQLVESGGGLVQPGGSLRLSCAASGFTFSSYPMGWFRQAPGKGREFVSSITGSGGSTYYADSVKGRFTISRDNAKNTLYLQMNSLRPEDTAVYYCAAYIRPDTYLSRDYRKYDYWGQGTLVTVSS |  |  |  | IC50 (read off the curve) (human RANKL [1]): ~0.1 nM; IC50 (human RANKL [2]): 0.114 nM |
| SEQ ID NO: 2 D105N (VHH) VHH: EVQLVESGGGLVQPGGSLRLSCAASGRTFSYNPMGWFRQAPGKGRELVAAISRTGGSTYYPDSVEGRFTISRDNAKRMVYLQMNSLRAEDTAVYYCAAAGVRAENGRVRTLPSEYTFWGQGTQVTVSS | 0.8 | 29.5 | 32.7 |  |
| SEQ ID NO: 2 S63G (VHH) VHH: EVQLVESGGGLVQPGGSLRLSCAASGRTFSYNPMGWFRQAPGKGRELVAAISRTGGSTYYPDGVEGRFTISRDNAKRMVYLQMNSLRAEDTAVYYCAAAGVRAEDGRVRTLPSEYTFWGQGTQVTVSS | 1.2 | 95.5 | 83.8 |  |
| SEQ ID NO: 2 M83A (VHH) VHH: EVQLVESGGGLVQPGGSLRLSCAASGRTFSYNPMGWFRQAPGKGRELVAAISRTGGSTYYPDSVEGRFTISRDNAKRMVYLQANSLRAEDTAVYYCAAAGVRAEDGRVRTLPSEYTFWGQGTQVTVSS |  |  |  | Kd (A1 domain of vWF [5]): 1.29 nM |
| Stab. 12A2H1; SEQ ID NO: 2 with E1D, D62E, M78T, D105Q (VHH, also called 12A2H1 SV1; 12A2h1SV1) VHH: DVQLVESGGGLVQPGGSLRLSCAASGRTFSYNPMGWFRQAPGKGRELVAAISRTGGSTYYPESVEGRFTISRDNAKRTVYLQMNSLRAEDTAVYYCAAAGVRAEQGRVRTLPSEYTFWGQGTQVTVSS |  |  |  | Kd (A1 domain of vWF [6]): 0.986 nM; koff (A1 domain of vWF [6]): 0.0207 s⁻¹; kon (A1 domain of vWF [6]): 2.1e+07 M⁻¹ s⁻¹ |
| SEQ ID NO: 2 D105A (VHH) VHH: EVQLVESGGGLVQPGGSLRLSCAASGRTFSYNPMGWFRQAPGKGRELVAAISRTGGSTYYPDSVEGRFTISRDNAKRMVYLQMNSLRAEDTAVYYCAAAGVRAEAGRVRTLPSEYTFWGQGTQVTVSS | 9.3 |  | 98.7 | fold drop in affinity against wild type SEQ ID NO: 2 (A1 domain of vWF [7]): 10 fold |
| SEQ ID NO: 2 M78A (VHH) VHH: EVQLVESGGGLVQPGGSLRLSCAASGRTFSYNPMGWFRQAPGKGRELVAAISRTGGSTYYPDSVEGRFTISRDNAKRAVYLQMNSLRAEDTAVYYCAAAGVRAEDGRVRTLPSEYTFWGQGTQVTVSS |  |  |  | Kd (A1 domain of vWF [8]): 1.46 nM |
| SEQ ID NO: 2 M34A (VHH) VHH: EVQLVESGGGLVQPGGSLRLSCAASGRTFSYNPAGWFRQAPGKGRELVAAISRTGGSTYYPDSVEGRFTISRDNAKRMVYLQMNSLRAEDTAVYYCAAAGVRAEDGRVRTLPSEYTFWGQGTQVTVSS |  |  |  | Kd (A1 domain of vWF [9]): 1.96 nM |
| SEQ ID NO: 2 D105S (VHH) VHH: EVQLVESGGGLVQPGGSLRLSCAASGRTFSYNPMGWFRQAPGKGRELVAAISRTGGSTYYPDSVEGRFTISRDNAKRMVYLQMNSLRAEDTAVYYCAAAGVRAESGRVRTLPSEYTFWGQGTQVTVSS | 3.7 | 93.7 | 94.2 |  |
| SEQ ID NO: 1, ALX-0081 (VHH, Produced in E. coli; also called BATCH 1; RPC main peak) EVQLVESGGGLVQPGGSLRLSCAASGRTFSYNPMGWFRQAPGKGRELVAAISRTGGSTYYPDSVEGRFTISRDNAKRMVYLQMNSLRAEDTAVYYCAAAGVRAEDGRVRTLPSEYTFWGQGTQVTVSSAAAEVQLVESGGGLVQPGGSLRLSCAASGRTFSYNPMGWFRQAPGKGRELVAAISRTGGSTYYPDSVEGRFTISRDNAKRMVYLQMNSLRAEDTAVYYCAAAGVRAEDGRVRTLPSEYTFWGQGTQVTVSS |  |  |  | potency relative to reference SEQ ID NO:1 (A1 domain of vWF [10]): 91.9%; potency relative to reference SEQ ID NO:1 (A1 domain of vWF [11]): 50% |
| SEQ ID NO: 1 RPC post-peak 1 (single norleucine mis-incorporation, -18 Da) (VHH, norleucine in place of one methionine (site not determined), -18 Da, Collected from RP-HPLC and reconstituted before the potency assay; also called -18Da product related variant) EVQLVESGGGLVQPGGSLRLSCAASGRTFSYNPMGWFRQAPGKGRELVAAISRTGGSTYYPDSVEGRFTISRDNAKRMVYLQMNSLRAEDTAVYYCAAAGVRAEDGRVRTLPSEYTFWGQGTQVTVSSAAAEVQLVESGGGLVQPGGSLRLSCAASGRTFSYNPMGWFRQAPGKGRELVAAISRTGGSTYYPDSVEGRFTISRDNAKRMVYLQMNSLRAEDTAVYYCAAAGVRAEDGRVRTLPSEYTFWGQGTQVTVSS |  |  |  | potency relative to reference SEQ ID NO:1 (A1 domain of vWF [10]): 51.6%; potency relative to reference SEQ ID NO:1 (A1 domain of vWF [11]): 81% |
| SEQ ID NO: 1 E1Q, fraction E1Q-a (cyclized pyroglutamate form) (VHH, N-terminal pyroglutamate (cyclized Q1), Fraction of the E1Q mutant from a monoS column; mass 27857 Da) QVQLVESGGGLVQPGGSLRLSCAASGRTFSYNPMGWFRQAPGKGRELVAAISRTGGSTYYPDSVEGRFTISRDNAKRMVYLQMNSLRAEDTAVYYCAAAGVRAEDGRVRTLPSEYTFWGQGTQVTVSSAAAEVQLVESGGGLVQPGGSLRLSCAASGRTFSYNPMGWFRQAPGKGRELVAAISRTGGSTYYPDSVEGRFTISRDNAKRMVYLQMNSLRAEDTAVYYCAAAGVRAEDGRVRTLPSEYTFWGQGTQVTVSS |  |  |  | potency relative to BATCH 1 (average) (A1 domain of vWF [12]): 105% |

The next lines start with results.

| Kd (A1 domain of vWF [3]) [nM] | % activity after 4 wks at 37° C. (initial binding rate against time zero) (A1 domain of vWF [4]) [%] | % activity after 8 wks at 37° C. (initial binding rate against time zero) (A1 domain of vWF [4]) [%] | Binder | other results |
| --- | --- | --- | --- | --- |
| 1 | 88.4 | 87.4 | SEQ ID NO: 2 D62A (VHH) VHH: EVQLVESGGGLVQPGGSLRLSCAASGRTFSYNPMGWFRQAPGKGRELVAAISRTGGSTYYPASVEGRFTISRDNAKRMVYLQMNSLRAEDTAVYYCAAAGVRAEDGRVRTLPSEYTFWGQGTQVTVSS |  |
| 4.4 |  | 98.8 | SEQ ID NO: 2 D105E (VHH) VHH: EVQLVESGGGLVQPGGSLRLSCAASGRTFSYNPMGWFRQAPGKGRELVAAISRTGGSTYYPDSVEGRFTISRDNAKRMVYLQMNSLRAEDTAVYYCAAAGVRAEEGRVRTLPSEYTFWGQGTQVTVSS |  |
| 1.3 | 89.6 | 80.2 | SEQ ID NO: 2 D62E (VHH) VHH: EVQLVESGGGLVQPGGSLRLSCAASGRTFSYNPMGWFRQAPGKGRELVAAISRTGGSTYYPESVEGRFTISRDNAKRMVYLQMNSLRAEDTAVYYCAAAGVRAEDGRVRTLPSEYTFWGQGTQVTVSS |  |
| 7.2 | 101 | 96 | SEQ ID NO: 2 D105T (VHH) VHH: EVQLVESGGGLVQPGGSLRLSCAASGRTFSYNPMGWFRQAPGKGRELVAAISRTGGSTYYPDSVEGRFTISRDNAKRMVYLQMNSLRAEDTAVYYCAAAGVRAETGRVRTLPSEYTFWGQGTQVTVSS |  |
| 1.1 | 97.6 | 90.8 | SEQ ID NO: 2 D105Q (VHH) VHH: EVQLVESGGGLVQPGGSLRLSCAASGRTFSYNPMGWFRQAPGKGRELVAAISRTGGSTYYPDSVEGRFTISRDNAKRMVYLQMNSLRAEDTAVYYCAAAGVRAEQGRVRTLPSEYTFWGQGTQVTVSS |  |
